Laboratory results from patent publication US20230002496A1 (STAIDSON BEIJING BIOPHARMACEUTICALS, published 2023).

T1: human GM-CSFRα, full length on cells (human, UniProt P15509 23-400)
T1 sequence: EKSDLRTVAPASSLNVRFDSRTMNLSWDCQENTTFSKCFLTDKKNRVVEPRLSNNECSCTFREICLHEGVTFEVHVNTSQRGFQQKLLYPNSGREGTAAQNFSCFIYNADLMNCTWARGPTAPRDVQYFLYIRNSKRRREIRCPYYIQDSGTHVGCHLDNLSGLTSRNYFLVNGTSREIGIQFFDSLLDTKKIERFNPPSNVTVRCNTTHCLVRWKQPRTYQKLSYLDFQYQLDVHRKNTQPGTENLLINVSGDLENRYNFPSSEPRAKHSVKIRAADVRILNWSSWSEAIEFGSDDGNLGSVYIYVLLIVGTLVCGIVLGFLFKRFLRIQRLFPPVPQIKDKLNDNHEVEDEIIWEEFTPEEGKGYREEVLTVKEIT

T2: human GM-CSFRα-6His (human, UniProt P15509 23-320)
T2 construct: pTT5-GMRa-6his (ECD), made in 293F cells; also called GMRah; GMRa-6his(ECD)
T2 sequence: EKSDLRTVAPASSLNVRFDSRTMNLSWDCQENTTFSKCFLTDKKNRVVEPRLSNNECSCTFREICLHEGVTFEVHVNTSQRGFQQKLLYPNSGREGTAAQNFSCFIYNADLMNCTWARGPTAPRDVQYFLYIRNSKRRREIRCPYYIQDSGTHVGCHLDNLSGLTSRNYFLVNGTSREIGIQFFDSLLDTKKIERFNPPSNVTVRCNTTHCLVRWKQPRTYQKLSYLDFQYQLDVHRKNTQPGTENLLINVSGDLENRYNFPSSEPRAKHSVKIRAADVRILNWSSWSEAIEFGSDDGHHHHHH

T3: cynomolgus monkey GM-CSFRα on granulocytes (cynomolgus monkey, UniProt A0A2K5UC70 23-393)
T3 sequence: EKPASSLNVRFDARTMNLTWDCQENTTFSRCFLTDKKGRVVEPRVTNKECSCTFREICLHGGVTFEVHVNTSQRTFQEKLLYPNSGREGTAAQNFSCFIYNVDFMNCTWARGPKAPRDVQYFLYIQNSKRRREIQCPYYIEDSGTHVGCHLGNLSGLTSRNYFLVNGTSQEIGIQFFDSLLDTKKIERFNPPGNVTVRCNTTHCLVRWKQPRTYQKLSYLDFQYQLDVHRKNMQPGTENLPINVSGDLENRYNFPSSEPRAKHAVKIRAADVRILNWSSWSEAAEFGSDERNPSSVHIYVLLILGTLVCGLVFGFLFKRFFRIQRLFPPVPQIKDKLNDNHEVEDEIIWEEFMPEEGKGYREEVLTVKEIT


Experiments:
[1] = target: T1, human GM-CSFRα, full length on cells; assay: cell-based or functional assay
[2] = target: T1, human GM-CSFRα, full length on cells; assay: cell-based or functional assay; remark: listed apart in the source
[3] = target: T1, human GM-CSFRα, full length on cells; assay: cell-based or functional assay; remark: listed apart in the source
human GM-CSFRα-6His [4] = target: T2, human GM-CSFRα-6His; assay: SPR, Biacore T200, antibody (IgG4) on CM5 chip, GMRah as analyte
Method: The affinities for GMRah at various concentrations were measured. […] The concentrations of 0.625 and 0 nM were repeated once. Using the SPR technology, the association and dissociation rates were measured, and binding affinity was determined.

[5] = target: T3, cynomolgus monkey GM-CSFRα on …; assay: cell-based or functional assay
[6] = target: T1, human GM-CSFRα, full length on cells; assay: cell-based or functional assay; remark: listed apart in the source
[7] = target: T1, human GM-CSFRα, full length on cells; assay: cell-based or functional assay; remark: listed apart in the source
[8] = target: T1, human GM-CSFRα, full length on cells; assay: cell-based or functional assay; remark: listed apart in the source
[9] = target: T1, human GM-CSFRα, full length on cells; assay: cell-based or functional assay; remark: listed apart in the source
human GM-CSFRα-6His [10] = target: T2, human GM-CSFRα-6His; assay: ELISA, antibodies as human IgG4, one bar for each protein; antibody concentration not shown

Row | IC50, IL-1β secretion by PBMC [1] [µg/mL] | IC50, CD11b expression on human peripheral blood cells [2] [µg/mL] | Kd (human GM-CSFRα-6His [4]) [pM] | koff (human GM-CSFRα-6His [4]) [s⁻¹] | kon (human GM-CSFRα-6His [4]) [M⁻¹ s⁻¹] | IC50, cynomolgus monkey granulocyte shape change [5] [µg/mL] | IC50, human granulocyte shape change [6] [µg/mL] | IC50, TNFα secretion by PBMC (Human Macrophage/Microglia Panel) [7] [µg/mL] | IC50, TNFα secretion by PBMC (ELISA) [8] [µg/mL] | IC50, TF-1 cell proliferation [9] [µg/mL] | binding result (human GM-CSFRα-6His [10]) | Binder | IC50, human granulocyte survival [3] [µg/mL]
1 | 0.00353 | 0.111 | 8.9 | 4.78e-05 | 5.37e+06 | 0.00253 | 0.00205 | 0.278 | 0.329 | 0.0474 |  | E35-IgG4 (antibody, V domains shown, human IgG4, human kappa; also called E35-IG4) VH: QMQLVQSGAEVKKPGASVKVSCKVSGYTLTELSIHWVRQAPGKGLEWMGGFDPEDGETIYAQKFQGRVTMTGDTSTDTAYLELSSLRSEDTALYYCATGRYTSLATTYGFDYWGQGTLVTVSS VL: EIVMTQSPATLSLSPGERATLSCRASQSVSSYLAWYQQKPGQAPRLLIYGASSRATGIPDRFSGSGSGTDFTLTISRLEPEDFAVYYCQQYDNWPYTFGQGTKLEIK | 0.0042
2 |  |  |  |  |  |  |  |  |  |  | binds | E87-IgG4 (antibody, V domains shown, human IgG4, human kappa) VH: QMQLVQSGAEVKKPGASVKVSCKVSGYTLTELSIHWVRQAPGKGLEWMGGFDPEDGETIYAQKSQGRVTMTGDTSTDTAYLELSSLRSEDTALYYCATGRYVSLFFNYGFDYWGQGTLVTVSS VL: EIVMTQSPATLSLSPGERATLSCRASQSVSSYLAWYQQKPGQAPRLLIYGASSRATGIPDRFSGSGSGTDFTLTISRLEPEDFAVYYCQQYNNWPPTFGQGTKLEIK | 
3 | 0.0133 | 0.144 | 6.75 | 2.42e-05 | 3.58e+06 |  | 0.00151 | 0.0666 | 0.0935 |  |  | E87b-IgG4 (antibody, V domains shown, human IgG4, human kappa) VH: QMQLVQSGAEVKKPGASVKVSCKVSGYTLTELSIHWVRQAPGKGLEWMGGFDPEDGETIYAQKSQGRVTMTGDTSTDTAYLELSSLRSEDTALYYCATGRYVSLFFNYGFDYWGQGTLVTVSS VL: EIVMTQSPATLSLSPGERATLSCRASQSVSSYLAWYQQKPGQAPRLLIYGASSRATGIPDRFSGSGSGTDFTLTISRLEPEDFAVYYCQQYDNWPYTFGQGTKLEIK | 0.00253
